Reference: the supplement of paper PMC9170038

System: K4 kissing-loop RNA reporter
Assay: apparent KD of K4 kissing-loop reporter; higher = weaker reporter binding
Conditions: Eterna round: R107
Protocol: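 RNA-MaP round R107: designed RNA switches with theophylline, tryptophan, arginine or FMN aptamers are transcribed on-chip within common flanks. They are titrated with a labelled K4 kissing-loop RNA reporter in RNA-MaP buffer (100 mM Tris pH 7.5, 80 mM KCl, 4 mM MgCl2), without ligand or with the indicated ligand. Median apparent KD per design.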

[1] = input ligand: theophylline 20 uM
[2] = input ligand: tryptophan 2.4 mM
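Note: bound reporter read as fluorescence of individual clusters on recovered sequencing chips by microscopy, with normalized cluster intensities fitted with a binding model.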

Sequence	apparent KD of K4 kissing-loop reporter (input ligand: FMN 200 uM) [nM]	apparent KD of K4 kissing-loop reporter (input ligand: arginine 13.2 mM) [nM]	apparent KD of K4 kissing-loop reporter (input ligand: none) [nM]	apparent KD of K4 kissing-loop reporter [1] [nM]	apparent KD of K4 kissing-loop reporter [2] [nM]
AACUGUCAAGGACAACAUUACUGCAGUGAUACCAGCAUCGAAAGAUGCCCUUGGCAGCACCAACUUGCAGUGAUGUUGCAAGUAA [BrourdMod 5 - Jieux - Exclusion - Theophylline A]	241	203	216	188	220
GGGAGUGAUGUUCCCGCGUUGACGGUCCUCCGAGGACCGGUACGGCCGCCACUCGAAACCCAGUGAUGUUGGGACUCACCGUACU [Exclusion Tryptophan A GF 11]	511	504	511	620	435
GGGCGUGGCGCGGCCGCCACUGGGCCUGGGUGCUCGCUGAGUGAUGUUCGUCGGCGGUUGGGUCGUAGGACCGGGUGCUGGUUGG [BDazzled - #9 SS Tryptophan B]	771	347	607	447	575
CGCCGAAAGGCGAGCGCUCCCACUCCGGAAGGAGCGCCCGAAAGGGCAGGUAGGUCGCCGGAGUGAUGUUCCGGUGGAGGGCUCG [#2 Exclusion - Arginine A Attempt #30 (Inspired by Omei)]	177	167	817	212	296
CAUACGCAUGGAGGAUAUGAGAUUUCUCAUAUUAUUUAAUAUUCUCAGUGAUGUUGGGAUUUAAACUCAGAAGGCCAUGUGUAUG [Ex FMN B 7]	259	159	159	234	169
GGAUAGGAUAGAGGAUAUGGUUUAUGCAGGAAUAACUUAUCGUGUAAAUCCAUAGGGAGUGAUGUUCCAGAAGGCUGUCCUAUCG [MatMod 13 - Jieux - Exclusion - FMN B]	408	202	228	250	170
AGAGUACGAAAGUACUCCUCUACACACUGACGAGGACCGGUACGGCCGCCACUCGAGUUGAGUGAUGUUCGAUAGUGUGUAGAGA [Omei KL Tryp A SS C v3]	213	38.4	97	312	1120
AAUUUAUUAACUGAUACCAGACUUAAUAAAUUGUAAAUUACUAGUGAUGUUAGUGAAUUUGUCCCUUGGCAGCAGUAUUUAUUAA [JR_ExcTheophyB_Sub009]	123	133	124	141	106
CGAACCUCCAAAGGAUAUCUCGUUUAGUGAUGUUUUGCGUAGUAUCAGGAUAGAAUAUUGAUUCAGAGAGAAGGUUGACGUUGGU [theeternabot_exclusion_KL_FMN_B_14]	733	428	684	511	537
GGGAAGGGACACAAGGAGGAACGAAGGGAAGGAGCGCCGGAGGAGGCAGGUAGGUCGCCCAACCAGUGAUGUUGGAAUUUAAUCC [Default title]	242	125	287	114	196
UGGAGUUGACGAAAAGUCAACUCCAGAGAAGGAGCGGACGAAAGUCCAGGUAGGUCGCUCACUACCAGUGAUGUUGGUACUUAAA	68.4	243	170	137	139
AUUUAUGUAUCAGGAUAUUAGUGAUGUUUGUUUUUGUUAGUGAUGUUGAUAUUUGUUUUAUGUAUUUAAGAAGGGAUUGAGAUGU [wwewmullin]	58.2	18.5	34.7	24.2	45.2
CCUUCUCUUGAUAGUGAUGUUAUCAAGGGCAAGGAUAUCAUCUCAAUGAGAAGGUGUCCUUGAUAACAUGGAGGUCUGAAACAGA [Omei KL FMN A Exc C v4]	157	165	209	159	206
UAAUAAUAAUGAUAAUAAUCAAGUGGUGGACGAGGACCGGUACGGCCGCCACUCGAAAAUGCAGUGAUGUUGUAAUACGGAUAAU [Exclusion - Tryptophan A (Freestyle 2)]	98.3	180	133	203	94.3
CGUGCCCAGCCGGAUACCAGUGACCCGCUGGGAACCGCGGGCCCAGAGUGAUGUUCGGGACACCCUUGGCAGCCGCCUGGGCGGU [#2 Same State - Theophylline B Attempt #11 (HarryS)]	1170	343	584	1190	791
AGGUUUUGAUUAGGAUAUGCACUGAGGAGGAGAAUAUAGUGAUGUUAUAUAAGAGGAAGUAGUAGAGUAGAAGGGAUUGAGGUUU [SSFMNB.S]	208	167	224	210	158
GCGCGUCAUGUCAGCGGUGACUACGUCGAUACCAGCAGGGAAACCUGCCCUUGGCAGCGACGCGCUGGAGUGAUGUUCCGACGGC [#2 Exclusion - Theophylline A Attempt #7 (HarryS)]	184	176	180	318	159
GUUACGCAUGGAAGGAGCGCGAAAAUUUAUAGUGAGUGAUGUUCACAAAUAAGAAUAAUAACGCAGGUAGGUCGCCAUGUGUAAC [Ex Arginine B K4 5]	87.1	86.8	105	118	95.2
CGGAUGUAGUGAUGUUAUAUUAGAUGUAGACGAGGACCGGUACGGCCGCCACUCGUGACGGCUGCUAGCGCGUUGCGAGGUGUGC [ExTryptoA.Cm]	729	575	657	690	603
AUAGGAGUGAUGUUCCUUAGUCUCUCCGAUACCAGUAUGGAAACAUACCCUUGGCAGCGGGAGACCGCAGAUUAGGAAACUAGUC [Theophylline A K4 5]	178	179	185	205	172
AUUUGUUUAUGUGAUACCAGACUAAGCAGUGAUGUUGCUUUUAUUUUUGAAUUUUAAAUAGUCCCUUGGCAGCACUAUGUAUUUA [JR_SSTheophyB_Sub010]	60.6	93.1	70.2	99.2	60.3

Sequence	apparent KD of K4 kissing-loop reporter (input ligand: FMN 200 uM) [nM]	apparent KD of K4 kissing-loop reporter (input ligand: arginine 13.2 mM) [nM]	apparent KD of K4 kissing-loop reporter (input ligand: none) [nM]	apparent KD of K4 kissing-loop reporter [1] [nM]	apparent KD of K4 kissing-loop reporter [2] [nM]
UUCUUGAUGGAAACAUCGAGAAUUACUGAUACCAGUAUCGAUAGAUACCCUUGGCAGCAGAAUCAGUAAUAACGAGUGAUGUUCG [Ex Theophylline A K4 4]	313	254	304	321	243
AAUAAUAAUAAAUAUAGAUUGAUGAGCAAACGAGGACCGGUACGGCCGCCACUCGAGUGAUGUUCGAGAAGCUCAUCAAUCAUAA [AK4.6 Exc Tryptophan A]	180	131	141	141	372
UAUUCUAAUGCGGCCGCCACUGGAAGUGAUGUUUCCUCUGGCUAUCAUUUCGGACGGUAUUGUCCCAGGACCGGGCAUCCCUCUC [theeternabot_exclusion_KL_Trp_B_4]	109	101	106	104	103
AGUGAUGUGGGAAGGAGCGGUAUAUGAGUUCAGUGAUGUUGAAGUGAUGCUGUAGUGUUGUGCCAGGUAGGUCGCCUAGAUGUUA [KL-XARG B25]	333	254	316	226	233
GUAUAAAUAUAAGGAUAUGCAGGGAAAGUAAGAAUGGGUUAGUUGAACUUUAGUGAUGUUGAGGAAGCAGAAGGUGUAUAUGUGU [FMN B same state]	650	272	381	322	319
AAAAUAACCCAGUGAUGUUGGUAUCCAGAUACCAGCGACGAAAGUCGCCCUUGGCAGCUGUGGACGUACAAAAUAAGUACGUCCU	903	395	403	545	612
GGGAUGUAGUGAUGUUAUAUUAGAUGUAGACGAGGACCGGUACGGCCGCCACUCGUGAUGGCUGCUAGCACGUUUCGAUGUUUGC [ExTryptoA.Cr]	399	426	428	462	309
CCGAUACAUUAUUCUACGGCCGAGAGUGAUACCAGCCAUAUUUAUGGCCCUUGGCAGCGCAGAUGCAGUGAUGUUGCAUACUUAC [Same State Theophylline A GF 19]	85.7	119	91.5	115	73.7
ACGUGCACCAGUGAUGUUGGAAAAUAUGAAGGAGCGGGAGAAAACCCAGGUAGGUCGCAUAAUUGCACGAGCCACGAAAGUGGCA [#15 K4 Arginine A Same State]	73.4	93.7	88.3	145	70.8
CAAAUGUUGUCAGGAUAUGAGCGCAGUGAUGUUGCGGUUGUAUUUAUGACUGGAGCAGCGUAAGCCUCAGAAGGGACAAGUUGCC [Qubioran]	167	92.2	106	84.9	99.3
UCUGUUGUAUAUGAUACCAGCAGUGAGAGACAGGAAGUAUAGUGAUGUUAUAUGAGAGAAUGCCCUUGGCAGCGUGUGCGGUUGG [SSTheophylB.W]	191	158	155	148	131
GGUGUUGUUUGUGCCGCCUUCCUCGUUCCUCGAGGACCGGUACGGCCGCCACUCGAGUGAUGUUUGGGUAGCGAUCCCUGCUAGU [Bdazzled - #12 Exc. Tryptophan A]	877	696	1000	822	892
AGCUGUAGCAGAAGGAGCGACAGUUAUUCUGAUAGUACUCUGAGUGAUGUUCAGAACGACUGUCAGGUAGGUCGCUGUUACAGCU [Arg B Ex t8b]	166	167	169	143	162
AUAGGCUAGCGAAACGCUAGCCUAACAGAUACCAGUCGCGAAAGCGACCCUUGGCAGCUGCUGAGUGAUGUUCAGGUGAAUGAAU	442	285	418	403	374
GAUUGAGUGAUGUUCAAUUAGUAUCUAGAUACCAGAAUGUCUACCUUCCCUUGGCAGCUACUGACGGUGAUCAUUUCGCGCGCAG [theeternabot_sameState_KL_Theo_A_19]	235	222	244	253	195
AAACAUUGGUCUGAUACCAGCUGAUCGGAAACGAUCUUGCUGGAGUGAUGUUCCAGGAAAAGCCCUUGGCAGCAGACCGAUGAAA [MAT - Same State Theophlline B - Mod of Eli - D24]	938	513	1030	715	962
AGGCACGAGCAAGGAUAUCGAGUAGAGUGAUGUUCUGCCUGGGUUGGCUCGCAAGGGCCUUCCCAGCGAGAAGGUGCUCGUGCCU [#2 Same State - FMN A Attempt #17 (HarryS)]	277	743	772	745	830
GUAGACGUGCCUUCAGUGAUGUUGAAGGAUACCAGAUGUUACCACAUCCCUUGGCAGCCUUGGGAUAACAGUGAGUCGGUAUAUG [Ontierso]	255	200	297	253	247
ACAUCGGUUGAGAGUGAUGUUCCUUGUGUUCGAGGACCGGUACGGCCGCCACUCGGGUAGAAAAUAACAGAUGUGUUUCAUUUUU [BDazzled - #17 SS Tryptophan A]	180	93.2	141	277	271
CUAGGUAACACAGGAUAUGUCCGAGUGAUGUUCGAGCCUUUCCAUUGACGAAAUUAAUGGUGGGUGACAGAAGGGUGAGUACUGA [Uses]	457	640	1090	640	828
UGAUACCAGACGGCCGCCACUAGGACCGGGAGUGAUGUUCCGAAAAUUAAAUGCUCGGCCGCCACUAGGACCGGGUCUGGUAUCU [TrypBX 28 #DoubleAptamer #SwitchBubble]	478	253	308	349	128
